Experimental data from paper PMC3509656.
Substitutions are numbered along the chain they refer to.

Tests used:
Experiment in all cases: EMSA
Conditions in all cases: 40 mM Tris pH 7.6, 85 mM KCl, 19% glycerol, 4 mg/mL BSA, 0.5 mg/mL calf thymus DNA, 30 min at 30 C; 6% native PAGE in 0.5x TBE
[1] = molecular target: T1, TorI-A46V A46V (Escherichia coli K-12 MG1655? (KplE1 prophage)) (UniProt Q2EES9)
T1 sequence: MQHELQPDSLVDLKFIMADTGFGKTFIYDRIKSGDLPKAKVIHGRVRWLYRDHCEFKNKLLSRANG

[2] = molecular target: T2, TorI-F15L F15L (Escherichia coli K-12 MG1655? (KplE1 prophage)) (UniProt Q2EES9)
T2 sequence: T1 sequence with F15L, V46A

[3] = molecular target: T3, TorI-F22I F22I (Escherichia coli K-12 MG1655? (KplE1 prophage)) (UniProt Q2EES9)
T3 sequence: T1 sequence with F22I, V46A

[4] = molecular target: T4, TorI-L61S L61S (Escherichia coli K-12 MG1655? (KplE1 prophage)) (UniProt Q2EES9)
T4 sequence: T1 sequence with V46A, L61S

[5] = molecular target: T5, TorI-M17V M17V (Escherichia coli K-12 MG1655? (KplE1 prophage)) (UniProt Q2EES9)
T5 sequence: T1 sequence with M17V, V46A

[6] = molecular target: T6, TorI-R45Q R45Q (Escherichia coli K-12 MG1655? (KplE1 prophage)) (UniProt Q2EES9)
T6 sequence: T1 sequence with R45Q, V46A

[7] = molecular target: T7, TorI-Y28F Y28F (Escherichia coli K-12 MG1655? (KplE1 prophage)) (UniProt Q2EES9)
T7 sequence: T1 sequence with Y28F, V46A

CATCGAGAAGGCGGTATGGTTTTTCTTTCGGCTTTGCTGCTTCAATCTGCTTAACGGTGAGCATGGGTAAAAATCCGGTGGGTAAAATTATTTTATCCACTTTTTACCCGTCATGGAGTGCGGCTGTCAACGATCTGAAGCGAACCATGACGAACTGTAAATCTACGGAATGCTTGATATTCAGGGGATTTTGCGGACTGGTACGGATGGGAGCGAACTGATAAATGGTGTCCCCTGCAGGAATCGAACCTGCAATTAGCCCTTAGGAGGGGCTCGTTATATCCATT (double strand) [KplE1 attL]
binding [1]: binds more weakly
binding [2]: binds more weakly
binding [3]: no binding
binding [4]: binds
binding [5]: binds more weakly
binding [6]: binds more weakly
binding [7]: binds more weakly
